The values that follow are results of earlier work, collected in paper PMC7826847.

The term Kd denotes the equilibrium constant for the complex coming apart.

Read-outs that look alike come from different tables or passages of the source.

The target of data set [1] is Nectin-3 (UniProt Q9NQS3).
The target of data set [2] is Nectin-3 (UniProt Q9NQS3). This is another data set of the same source.

Nectin-3, sequence (Q9NQS3 58-404): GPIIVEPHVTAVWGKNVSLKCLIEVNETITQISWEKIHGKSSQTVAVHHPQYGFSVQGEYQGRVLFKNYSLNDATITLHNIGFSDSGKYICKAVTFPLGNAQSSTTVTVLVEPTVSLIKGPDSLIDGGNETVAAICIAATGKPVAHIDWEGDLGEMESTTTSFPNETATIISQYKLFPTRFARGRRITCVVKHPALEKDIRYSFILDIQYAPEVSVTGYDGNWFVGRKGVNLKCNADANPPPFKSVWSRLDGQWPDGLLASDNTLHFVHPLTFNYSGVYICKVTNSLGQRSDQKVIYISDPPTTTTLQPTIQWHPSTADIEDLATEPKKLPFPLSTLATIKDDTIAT
Nectin-2, sequence (Q92692 32-360): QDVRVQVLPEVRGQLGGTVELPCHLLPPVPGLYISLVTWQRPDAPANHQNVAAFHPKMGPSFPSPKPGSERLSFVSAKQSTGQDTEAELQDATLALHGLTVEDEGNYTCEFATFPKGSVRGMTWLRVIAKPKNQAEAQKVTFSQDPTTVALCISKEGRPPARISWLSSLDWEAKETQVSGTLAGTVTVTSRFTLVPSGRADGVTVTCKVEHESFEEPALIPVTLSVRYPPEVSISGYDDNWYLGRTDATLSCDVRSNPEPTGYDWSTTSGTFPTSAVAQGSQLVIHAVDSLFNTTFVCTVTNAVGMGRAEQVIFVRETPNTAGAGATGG
Nectin-1, sequence (Q15223 31-355): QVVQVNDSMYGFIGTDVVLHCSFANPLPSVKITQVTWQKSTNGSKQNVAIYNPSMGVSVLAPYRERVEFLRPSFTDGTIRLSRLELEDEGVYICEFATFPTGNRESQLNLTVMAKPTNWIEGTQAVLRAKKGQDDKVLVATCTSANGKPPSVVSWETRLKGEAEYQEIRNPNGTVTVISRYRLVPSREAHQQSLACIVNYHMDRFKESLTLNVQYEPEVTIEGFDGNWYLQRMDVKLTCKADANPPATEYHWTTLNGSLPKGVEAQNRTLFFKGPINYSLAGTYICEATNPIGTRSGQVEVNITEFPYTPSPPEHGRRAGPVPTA

Nectin-1 (from UniProt Q15223): the Kd with Nectin-3 [1] is 2.3 nM. In the case of Nectin-2 (from UniProt Q92692), the Kd in the data set with Nectin-3 [2] was 360 nM.
